Measured values reported in the Immune Epitope Database (IEDB).

molecular target: HLA-A*02:01; test: IEDB peptide-MHC binding, purified MHC/competitive/radioactivity; ≥ and ≤ were set here for values at or beyond the usual limits of such assays; conditions: source organism: Mammarenavirus brazilense

Row | Sequence | IC50 [nM]
1 | CMVNHSTYYV | 73
2 | QLIFFLTLA | 122
3 | MVNHSTYYV | 27

same assay, conditions: source organism: Mammarenavirus choriomeningitidis

Row | Sequence | IC50 [nM]
4 | NISGYNFSL | 642
5 | SLNQTVHSL | 53
6 | YIACRTSIV | 46
7 | YLISIFLHLV | 5.8
8 | SLAADLEKL | 45

same assay, conditions: source organism: Mammarenavirus juninense

Row | Sequence | IC50 [nM]
9 | SLFLHLVGI | 1.5
10 | GLFQFFVFLA | 26
11 | KMKCFGNTAV | 2930

same assay, conditions: source organism: Mammarenavirus lassaense

Row | Sequence | IC50 [nM]
12 | SLQSAGFTA | 1250
13 | GTMPSLTLA | 1670
14 | ALMDCIMFDA | 1.1
15 | FVFSTSFYL | 2.5

same assay, conditions: source organism: Mammarenavirus machupoense

Row | Sequence | IC50 [nM]
16 | ALVAVSLIA | 3690
17 | VLSYVIGLL | 210
18 | ALTIACMTV | 332

same assay, conditions: source organism: Mammarenavirus whitewaterense

Row | Sequence | IC50 [nM]
19 | MINDTHFLL | 265
20 | MIITAVNSL | 2430
21 | TLKSFFAWSL | 1340
22 | MIITAVNSLI | 438
23 | QLDMIITAV | 57
24 | YVNHTGFNV | 478
25 | LLQFIVFLL | 159

same assay, conditions: source organism: Vaccinia virus WR

Row | Sequence | IC50 [nM]
26 | HLMFYTLPI | 0.67
27 | NTFYLFTFT | 492
28 | LTVLGLGLSL | 1930
29 | VLDTTLYAV | 0.6
30 | LAKAIITPVV | 2360
31 | CIDGKWNPVL | 1860
32 | YVTKKNNNI | 505
33 | RMQRISGSNI | 4330
34 | NVVSSSTIA | 588
35 | FIEHLGEGI | 4820
36 | TTLSRHIFMA | 399
37 | NQLYLTVSFI | 520
38 | FLRGEAILQI | 85
39 | YANNDKFRL | 587
40 | DMIDNLNIV | 2360
41 | SIRFHIKEL | 1560
42 | DIIDFLEGA | 445
43 | TIMGVIFLI | 9.6
44 | GTINRILVIT | 1230
45 | ILQYDLWNV | 0.17
46 | TLFDDELYSI | 1.1
47 | GLIACLIFV | 7.7
48 | VLPAVVYST | 113
49 | MLLALVALV | 0.42

Row | Sequence | IC50 [nM]
50 | KLMGTITLNA | 12
51 | ALATFTVNI | 0.6
52 | SLDSLVHLL | 3.3
53 | YLVSSLSEI | 6.5
54 | YVPGYSITT | 132
55 | IMFKDDNIIM | 141
56 | FLICHNLRA | 17
57 | YLAIPDLYGI | 8.2
58 | FIKPPLITL | 373
59 | MMIDDFGTA | 3.2
60 | ALWIPDLFM | 0.14
61 | TMLSIILVII | 154
62 | ALTIMGVIFL | 180
63 | NMQTVKLFV | 12
64 | MMKTYIEFV | 4.7
65 | GLIKKPYRSI | 848
66 | KLFFAKCLV | 23
67 | SMTENVEEDL | 755
68 | YIIRVTTEL | 36
69 | IVLSNTSTAV | 725
70 | SMLGIWFFT | 0.65
71 | YLMPYSVYI | 0.26
72 | AIYSAILLLV | 53
73 | GMLFVNDLMT | 838

Row | Sequence | IC50 [nM]
74 | YTIERIFNA | 0.56
75 | LLYILRYIV | 138
76 | YIIRYPVKRI | 1020
77 | SLLDEDSKI | 99
78 | MLNGIMYRL | 0.35
79 | FLTSVINRV | 2.5
80 | IILLFDFSI | 162
81 | FLSRVFFCV | 0.81
82 | RIIDSEVVV | 94
83 | GTGYYKYFI | 1650
84 | KILSASNRL | 766
85 | GILSNYVKTL | 312
86 | IIFGESSIFV | 1.3
87 | SLNRTIVTKV | 67
88 | FLHNYILYA | 0.54
89 | SLQTCAGVI | 2850
90 | YLYALYSPL | 0.13
91 | SIDIETESV | 235
92 | TLVAIFSYI | 863
93 | IMLNGIMYRL | 14
94 | VLPNKVRIFI | 1310
95 | TIIALLFAL | 12
96 | KLNKMTVEL | 6.5
97 | YLFTFTIYT | 3.3

Row | Sequence | IC50 [nM]
98 | RTSQKGTVA | 765
99 | LVDNVDFATI | 3670
100 | TVTNKEGVKI | 2880
101 | FIGYMVKNV | 443
102 | GLYCYFTHL | 5.4
103 | KLFTDNNFL | 2
104 | TLAPFNFLV | 0.22
105 | FIILLLAIV | 596
106 | LLEIHQYPA | 98
107 | YAVTKTDGI | 3060
108 | FQYLLPGFVL | 37
109 | LMDSIFVST | 0.72
110 | ILSNYVKTL | 313
111 | AIIAIVFVFI | 940
112 | KLVDICDRIV | 32
113 | LTFWQIDYL | 7.3
114 | ELVFIKPPLI | 3300
115 | TLYDFDYYI | 0.18
116 | FMIEGLMTSL | 0.2
117 | LVVDNGELM | 3600
118 | NIEKYFTFLV | 1450
119 | LVITINYFL | 25
120 | RTFLIDLAFL | 6.6
121 | FIISVISLV | 0.91

Row | Sequence | IC50 [nM]
122 | MTPSPFYTV | 6.4
123 | IMVTDTINT | 2360
124 | VVCNDLYKV | 174
125 | FQQPQFQYL | 48
126 | LLVQRVTSV | 3.1
127 | NLYDDNDIRT | 40
128 | NLLSKNTFYL | 1.4
129 | SMITMSAFL | 20
130 | FTFTIYTDEV | 352
131 | YTINCLLYI | 5.1
132 | FMYFCEQKL | 1.9
133 | RINDDSKSIL | 4360
134 | HLIKIPLLI | 1.9
135 | HIIIVALTIM | 1670
136 | YLDFLLLLL | 0.43
137 | ILYLYETYHL | 9
138 | AIFTDASTV | 697
139 | IMFKDDNII | 235
140 | MLIEVILTA | 5
141 | LMIFISSFLL | 27
142 | VLNIVLFIL | 393
143 | QTSVFSATV | 1670
144 | LTNEIYASII | 4330
145 | YIIKNTFNV | 0.54

Row | Sequence | IC50 [nM]
146 | FLSLMSLSI | 3.5
147 | YLPKQPEGVI | 279
148 | KTITTCYLM | 445
149 | YISELYNKPL | 626
150 | LISLTNEIYA | 1220
151 | YLTAIQDFI | 1.9
152 | RLHKECLLRL | 447
153 | CQQKCDMPSL | 2370
154 | FLSRLVLYA | 0.075
155 | YIDALAKNA | 473
156 | VLMEAQQGI | 7.1
157 | FLIDLAFLI | 0.041
158 | FVNKHLPTM | 1590
159 | YLNTNKLFFA | 9.9
160 | VTLLCVLPA | 76
161 | VTMVDKPTEL | 3360
162 | FAALGGSVNI | 3730
163 | MMWDLKKKGL | 103
164 | FLHTTFIDV | 0.46
165 | SISVVFSTNL | 2890
166 | KTIIDPDFV | 346
167 | RTVIHLEWLL | 134
168 | YLVIYLNRT | 819
169 | NVYPGVWNT | 830

Row | Sequence | IC50 [nM]
170 | SIRLELVNLI | 2170
171 | IVALTIMGV | 27
172 | YVHGDTYSL | 71
173 | SIFINKLNGA | 1820
174 | GLDLENLYAV | 3.5
175 | MTFGDIPLV | 0.98
176 | RVNVFETRI | 1960
177 | GLIYSMEFT | 1220
178 | CVLTTIDGV | 293
179 | YQMLLALVAL | 1.5
180 | LLYLILFLL | 2200
181 | IIITCCLLSV | 6.3
182 | TLSRHIFMA | 6.2
183 | LVASLNPNM | 387
184 | FTPRDNETV | 877
185 | YQYVRLHEM | 9.2
186 | STLIVTIYV | 677
187 | RLSTEERHI | 708
188 | RIPNSLHSL | 670
189 | YIYYFFIRL | 8.8
190 | AMFTAALNI | 2.4
191 | SMSSYDFST | 0.34
192 | TIDQTANVV | 549
193 | VLVDNVDFA | 20

Row | Sequence | IC50 [nM]
194 | RIDKTMKYI | 2660
195 | RLNDFLGLL | 11
196 | FVILYLLAV | 7.8
197 | PLYEVNSTMT | 3420
198 | EATYHIIIVA | 2120
199 | WLYGYNFII | 0.19
200 | GLIIISIFL | 72
201 | VIDEILFKV | 1.3
202 | ILMDSIFVST | 45
203 | DLLSYYVVYV | 0.45
204 | IIILAVLFI | 1660
205 | RQIFIHYSV | 0.65
206 | FAAELTIGV | 0.32
207 | IVIGVIILA | 664
208 | GLNDYLHSV | 1.3
209 | CLCSFHNDAI | 2880
210 | VIVIYIFTV | 104
211 | GTYAVNIHV | 33
212 | LLSLLVIWIL | 112
213 | VLSNTSTAV | 16
214 | FINFFNLLA | 726
215 | AIYKLGSSI | 1100
216 | FLTAALPVKL | 384
217 | WLLCKLSCA | 151

Row | Sequence | IC50 [nM]
218 | IVIEAIHTV | 1410
219 | KVYDKLFPV | 0.34
220 | FVFAWFNGV | 0.38
221 | KLSSYHVVSV | 16
222 | MLFVNDLMTM | 51
223 | ILMYPTTLL | 7
224 | TLYDFDYYII | 5.8
225 | KQFIQRGGL | 3990
226 | FLLRSIIVA | 3.1
227 | ILSAVAIFCI | 13
228 | QTANVVFRYM | 729
229 | TLDNILGIL | 67
230 | FLLFLEITYT | 6.9
231 | FVLVDNVDFA | 75
232 | IVVELEPSL | 2110
233 | SASVFYRGA | 2050
234 | SLDVINYLI | 0.55
235 | ALVALVITI | 1.9
236 | NVDNLIMIV | 170
237 | KTFKDESIFI | 93
238 | VMVTITQNV | 37
239 | RTVIHLEWL | 514
240 | YLSSWTPVV | 0.33
241 | FTISMRYQSL | 4300

Row | Sequence | IC50 [nM]
242 | STIATYIDAL | 2780
243 | SLSKQDISL | 67
244 | NTIDQTANV | 162
245 | RLSLNRTIV | 849
246 | PLYEVNSTM | 4580
247 | FVNDLMTMNI | 178
248 | PVNAINDRL | 3460
249 | TLTNVVNIST | 1240
250 | IQAKTKNFTI | 4230
251 | GLDVKNVQLV | 313
252 | YLKIGTLLV | 17
253 | MTPSPFYTVM | 1700
254 | SMPASHNNLA | 1910
255 | SQEVRKYFCV | 1200
256 | ALNHLVLSL | 0.45
257 | IIFFIVLILL | 201
258 | IIVALTIMGV | 216
259 | QLEHGSCQPV | 16
260 | LLFFLALSI | 26
261 | IILAISALL | 12
